Biological target: T1, IL-18R protein on the surface of L428 cell (human, UniProt Q13478 19-541)
T1 construct: whole, on cells; Endogenous receptor on cell lines; also called L428 cells; IL-18R protein on the surface of KG-1 cell
T1 sequence (looked up): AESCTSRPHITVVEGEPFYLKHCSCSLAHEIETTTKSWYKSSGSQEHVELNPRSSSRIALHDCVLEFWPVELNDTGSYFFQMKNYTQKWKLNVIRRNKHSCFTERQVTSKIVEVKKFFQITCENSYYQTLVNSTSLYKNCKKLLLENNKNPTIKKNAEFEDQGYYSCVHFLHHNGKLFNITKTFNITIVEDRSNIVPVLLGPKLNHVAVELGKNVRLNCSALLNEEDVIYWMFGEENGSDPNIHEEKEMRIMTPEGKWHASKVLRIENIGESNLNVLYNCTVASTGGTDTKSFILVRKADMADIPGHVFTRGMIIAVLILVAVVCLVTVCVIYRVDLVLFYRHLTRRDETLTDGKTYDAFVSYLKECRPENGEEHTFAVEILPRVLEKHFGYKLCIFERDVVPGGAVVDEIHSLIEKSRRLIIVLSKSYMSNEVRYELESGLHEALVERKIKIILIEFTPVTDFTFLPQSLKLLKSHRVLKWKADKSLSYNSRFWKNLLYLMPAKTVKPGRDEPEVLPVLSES
Assay: inhibition of 125I-labelled IL-18 binding to L428 cells (FIG. 1 legend)
Description: Subsequently, each cell suspension was added with 200 µl mixture solution (volume ratio 1:1) of dibutylphthalate and diocthylphtalate and centrifuged at 10,000 rpm and 20° C. for 5 minutes, followed by collecting the resultant precipitates containing the cells which were then determined for radioactivity using "MODEL ARC-300", a gamma-ray counter commercialized by Aloka Co., Ltd, Tokyo, Japan.
The levels of radioactivity found in "non-specific binding section" and "whole binding section" were put in Formula 1 together with that found in the sample testing section to calculate percent inhibition.

binding result: binds
B1: monoclonal antibody MAb #117-10C (antibody, V domains shown)
VH: EVQLQQSGAELVKPGASVKLSCTTSGFNIKDIYIYWVKQRPEQGLEWVGRIDPANGDTKYGPNFQDKATITADTSSNTAYLQLRSLTSEDTAVYYCARRGNYGAGFGYWGQGTLVTVSA
VL: DIQMTQSPASLSASVGETVTITCRASGNIHNYLAWYQQRQGKSPQILVYNAKTLADGVSSRFSGSGSGTQYSLNINSLQPEDFGTYFCQHFWSTPYTFGGGTKLEIKR
notes: Mouse hybridoma antibody purified from ascites

From patent publication US7141393 (KABUSHIKI KAISHA HAYASHIBARA SEIBUTSU KAGAKU KENKYUJO, dated 2006)
